Earlier results in publication PMC3951274.

What was measured:
[1] = target: [α2(IV)454-465][α1(IV)437-448] heterotrimeric THP α2(IV)454-465, α1(IV)437-448 (Homo sapiens) (UniProt P02462)
[2] = target: α1(I)127-138 THP 127-138 (Homo sapiens) (UniProt P02452)

Chain of UniProt P02462 (P02462 173-1669, chain 1 of 2): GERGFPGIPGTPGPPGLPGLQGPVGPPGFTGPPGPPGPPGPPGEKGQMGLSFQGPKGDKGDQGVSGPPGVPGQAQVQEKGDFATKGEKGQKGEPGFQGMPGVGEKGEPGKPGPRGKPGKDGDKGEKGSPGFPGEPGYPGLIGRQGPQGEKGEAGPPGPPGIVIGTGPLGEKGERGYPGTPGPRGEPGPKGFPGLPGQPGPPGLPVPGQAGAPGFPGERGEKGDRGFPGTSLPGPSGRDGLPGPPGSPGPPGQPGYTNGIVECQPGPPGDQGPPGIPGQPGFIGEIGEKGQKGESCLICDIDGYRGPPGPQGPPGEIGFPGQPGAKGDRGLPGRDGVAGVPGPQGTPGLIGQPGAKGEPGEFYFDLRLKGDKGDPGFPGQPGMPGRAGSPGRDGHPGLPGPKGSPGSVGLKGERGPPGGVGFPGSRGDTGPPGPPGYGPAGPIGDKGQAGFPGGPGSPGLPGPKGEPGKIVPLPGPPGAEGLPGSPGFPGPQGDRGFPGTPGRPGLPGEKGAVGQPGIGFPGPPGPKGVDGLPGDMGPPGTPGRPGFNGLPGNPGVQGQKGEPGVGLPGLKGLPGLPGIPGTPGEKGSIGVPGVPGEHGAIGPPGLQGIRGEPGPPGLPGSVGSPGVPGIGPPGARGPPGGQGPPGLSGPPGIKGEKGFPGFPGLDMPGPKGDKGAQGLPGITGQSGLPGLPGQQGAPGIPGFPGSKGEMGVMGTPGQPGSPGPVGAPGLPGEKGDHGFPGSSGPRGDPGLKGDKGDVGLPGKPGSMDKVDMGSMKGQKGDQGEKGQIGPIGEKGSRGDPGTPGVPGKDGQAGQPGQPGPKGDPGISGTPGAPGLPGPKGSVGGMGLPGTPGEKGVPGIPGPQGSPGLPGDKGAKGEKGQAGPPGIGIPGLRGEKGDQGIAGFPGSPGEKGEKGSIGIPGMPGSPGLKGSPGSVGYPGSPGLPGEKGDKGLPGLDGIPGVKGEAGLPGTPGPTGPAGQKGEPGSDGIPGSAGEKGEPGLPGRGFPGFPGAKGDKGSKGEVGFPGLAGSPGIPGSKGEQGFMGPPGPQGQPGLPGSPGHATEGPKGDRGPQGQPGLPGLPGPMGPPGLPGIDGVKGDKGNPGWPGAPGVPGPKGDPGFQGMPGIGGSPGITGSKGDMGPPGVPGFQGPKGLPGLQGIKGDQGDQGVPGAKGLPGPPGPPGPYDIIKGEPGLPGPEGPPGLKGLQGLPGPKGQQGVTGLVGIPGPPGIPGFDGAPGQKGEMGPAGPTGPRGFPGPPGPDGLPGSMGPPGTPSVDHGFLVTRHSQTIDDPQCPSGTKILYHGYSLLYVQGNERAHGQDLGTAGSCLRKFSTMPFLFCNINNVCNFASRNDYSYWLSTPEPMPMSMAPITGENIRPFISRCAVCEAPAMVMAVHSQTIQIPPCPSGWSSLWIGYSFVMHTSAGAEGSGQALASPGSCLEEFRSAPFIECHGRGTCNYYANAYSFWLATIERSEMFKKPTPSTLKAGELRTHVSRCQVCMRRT
Chain of UniProt P02462 (P08572 184-1712, chain 2 of 2, further chain): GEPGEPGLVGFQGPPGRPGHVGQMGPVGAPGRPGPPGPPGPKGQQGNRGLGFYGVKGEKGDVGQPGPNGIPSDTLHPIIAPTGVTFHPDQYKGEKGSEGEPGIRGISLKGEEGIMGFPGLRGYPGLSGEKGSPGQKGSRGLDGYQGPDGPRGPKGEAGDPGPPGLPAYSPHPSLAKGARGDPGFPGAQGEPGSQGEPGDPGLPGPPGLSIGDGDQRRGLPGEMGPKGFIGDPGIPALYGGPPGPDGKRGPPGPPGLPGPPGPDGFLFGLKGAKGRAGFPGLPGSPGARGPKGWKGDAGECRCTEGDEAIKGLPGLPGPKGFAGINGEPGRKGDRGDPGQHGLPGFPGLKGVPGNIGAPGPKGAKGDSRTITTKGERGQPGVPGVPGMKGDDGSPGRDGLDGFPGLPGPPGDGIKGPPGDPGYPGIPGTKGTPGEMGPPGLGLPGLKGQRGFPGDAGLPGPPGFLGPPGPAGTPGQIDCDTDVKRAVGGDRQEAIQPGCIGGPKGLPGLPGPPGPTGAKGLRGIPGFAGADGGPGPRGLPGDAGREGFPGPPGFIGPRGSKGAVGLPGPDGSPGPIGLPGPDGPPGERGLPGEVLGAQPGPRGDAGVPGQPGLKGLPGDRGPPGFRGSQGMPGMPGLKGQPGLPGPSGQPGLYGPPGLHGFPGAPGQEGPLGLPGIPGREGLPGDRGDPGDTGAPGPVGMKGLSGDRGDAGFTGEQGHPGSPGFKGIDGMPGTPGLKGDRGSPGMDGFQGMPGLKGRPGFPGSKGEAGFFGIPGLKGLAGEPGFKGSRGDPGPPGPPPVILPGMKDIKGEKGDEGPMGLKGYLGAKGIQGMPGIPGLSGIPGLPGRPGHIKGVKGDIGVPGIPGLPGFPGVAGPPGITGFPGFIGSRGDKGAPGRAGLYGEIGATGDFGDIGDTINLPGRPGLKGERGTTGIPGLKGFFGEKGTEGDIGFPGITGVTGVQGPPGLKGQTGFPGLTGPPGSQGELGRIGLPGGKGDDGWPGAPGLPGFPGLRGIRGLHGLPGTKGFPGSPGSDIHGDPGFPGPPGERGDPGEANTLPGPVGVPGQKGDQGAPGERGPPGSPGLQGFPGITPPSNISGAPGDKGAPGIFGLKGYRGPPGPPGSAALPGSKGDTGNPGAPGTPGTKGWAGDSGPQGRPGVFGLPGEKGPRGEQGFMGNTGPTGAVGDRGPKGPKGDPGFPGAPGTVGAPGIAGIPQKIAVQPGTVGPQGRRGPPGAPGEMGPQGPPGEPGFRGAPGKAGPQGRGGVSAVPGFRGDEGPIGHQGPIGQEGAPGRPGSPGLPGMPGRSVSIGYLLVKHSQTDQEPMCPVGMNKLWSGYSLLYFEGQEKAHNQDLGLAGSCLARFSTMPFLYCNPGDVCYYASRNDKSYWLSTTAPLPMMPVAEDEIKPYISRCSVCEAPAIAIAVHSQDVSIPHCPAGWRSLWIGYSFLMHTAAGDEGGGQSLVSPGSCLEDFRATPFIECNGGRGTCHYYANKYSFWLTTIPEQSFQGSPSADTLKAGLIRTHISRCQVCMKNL

Substance	Kd [1] [µM]	Kd [2] [nM]
integrin α1β1 (from UniProt P56199)	20	
integrin α2 I-domain (from UniProt P17301)		400
